Source: US20160046728

Tested on: Ir-CPI (Ixodes ricinus Contact Phase Inhibitor), recombinant

Row | Substance | activation of factor XII into factor XIIa by kallikrein (reconstituted system, purified factors, chromogenic substrate) | amidolytic activity on chromogenic substrate (protease:Ir-CPI 1:5) | activation of factor XII into factor XIIa by factor XIa (reconstituted system, purified factors, chromogenic substrate)
1 | plasma kallikrein | Ir-CPI did not inhibit the activation of factor XII into factor XIIa by kallikrein | The results obtained did not show any effect of Ir-CPI protein on the amidolytic activity of these factors | –
2 | thrombin | – | The results obtained did not show any effect of Ir-CPI protein on the amidolytic activity of these factors | –
3 | factor XIa | – | The results obtained did not show any effect of Ir-CPI protein on the amidolytic activity of these factors | Ir-CPI inhibits ... the activation of factor XII into factor XIIa by factor XIa
4 | factor IXa | – | The results obtained did not show any effect of Ir-CPI protein on the amidolytic activity of these factors | –
